Data taken from paper PMC8027116 (2021).

Assays:
Test in all cases: activation reporter or marker
[1] = molecular target: T1, preproinsulin peptide on HLA-DRA*01:01 / HLA-DRB1*03:01 (human)
T1 peptide: AEDLQVGQVELGGGP

[2] = molecular target: T2, preproinsulin peptide on HLA-DRA*01:01 / HLA-DRB1*09:01 (human)
T2 peptide: AEDLQVGQVELGGGP

[3] = molecular target: T3, preproinsulin peptide on HLA-DQA1*05:01 / HLA-DQB1*02:01 (human)
T3 peptide: YLVCGERGFFYTPKT

[4] = molecular target: T4, preproinsulin peptide on HLA-DQA1*05:01 / HLA-DQB1*02:02 (human)
T4 peptide: YLVCGERGFFYTPKT

[5] = molecular target: T5, preproinsulin peptide on HLA-DRA*01:01 / HLA-DRB1*03:01 (human)
T5 peptide: QKRGIVEQCCTSICS

[6] = molecular target: T6, insulin B-chain peptide on HLA-DRA*01:01 / HLA-DRB1*04:01 (human)
T6 peptide: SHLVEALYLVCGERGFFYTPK

B1: 55.C10 (TCR)
alpha TRAV26-1 TRAJ26 CDR3: CIVRSHGQNFVF
beta TRBV20-1 TRBJ2-7 CDR3: CSARPGTRNYEQYF
binding result [1]: no recognition
binding result [2]: no recognition

B2: 56.B1 (TCR)
alpha TRAV13-1 TRAJ40 CDR3: CAVLSPSGTYKYIF
beta TRBV7-9 TRBJ1-4 CDR3: CASSLMGNPHEKLFF
binding result [3]: recognises
binding result [4]: recognises

B3: 95.A9-1 (TCR)
alpha TRAV9-2 TRAJ18 CDR3: CALRTDRGSTLGRLYF
beta TRBV11-2 TRBJ1-6 CDR3: CASSLQSSYNSPLHF
binding result [5]: no recognition

B4: 23.G8 (TCR)
alpha TRAV39 TRAJ56 CDR3: CAWRTGANSKLTF
beta TRBV24-1 TRBJ2-2 CDR3: CATGLAANTGELFF
binding result [6]: no recognition
